Measurements as given in PMC10786891, “Massively parallel profiling of RNA-targeting CRISPR-Cas13d”.
Changes are numbered by the printed parent chain. In names and notes the source's numbering stands.

T1: EsCas13d, nuclease-dead (Eubacterium siraeum, UniProt B0MS50, R295A;H300A;R849A;H854A)
T1 sequence: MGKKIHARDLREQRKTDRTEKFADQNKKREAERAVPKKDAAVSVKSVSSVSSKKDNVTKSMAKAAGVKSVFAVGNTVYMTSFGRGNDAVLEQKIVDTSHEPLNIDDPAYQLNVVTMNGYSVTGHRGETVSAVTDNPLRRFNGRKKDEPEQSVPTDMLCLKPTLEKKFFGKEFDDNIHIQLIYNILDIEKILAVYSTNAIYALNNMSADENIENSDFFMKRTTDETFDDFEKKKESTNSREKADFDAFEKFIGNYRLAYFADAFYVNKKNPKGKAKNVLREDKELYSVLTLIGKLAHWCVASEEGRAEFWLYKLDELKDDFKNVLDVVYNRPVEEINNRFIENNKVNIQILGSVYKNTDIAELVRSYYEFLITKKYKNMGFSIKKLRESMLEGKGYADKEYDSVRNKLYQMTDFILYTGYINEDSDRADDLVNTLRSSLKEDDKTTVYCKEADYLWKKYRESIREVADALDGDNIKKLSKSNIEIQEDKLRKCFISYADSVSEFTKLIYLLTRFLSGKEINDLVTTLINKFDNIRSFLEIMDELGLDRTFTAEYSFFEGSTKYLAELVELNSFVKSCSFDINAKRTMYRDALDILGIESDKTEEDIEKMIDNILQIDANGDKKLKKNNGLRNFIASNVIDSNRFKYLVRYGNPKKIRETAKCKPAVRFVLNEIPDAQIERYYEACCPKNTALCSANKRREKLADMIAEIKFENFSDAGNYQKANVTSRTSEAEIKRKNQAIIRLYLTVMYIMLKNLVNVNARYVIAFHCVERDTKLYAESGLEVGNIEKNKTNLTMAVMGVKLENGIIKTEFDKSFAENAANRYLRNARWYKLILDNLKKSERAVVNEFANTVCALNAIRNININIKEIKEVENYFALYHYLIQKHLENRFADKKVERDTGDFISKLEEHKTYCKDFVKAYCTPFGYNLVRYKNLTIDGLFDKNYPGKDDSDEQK

B1: target 1 insG 3' of 21,insG 3' of 1 (mixed)
RNA 1: CACCCGUGCAAAAAUGCAGGGGUCUAAAACUGAGCGGAUAACCUCUCUAUGG
RNA 2: GGGAAUGGAUCCACAUCUACGAAUUCGUACCGAUAGAGAGGUUAUCCGCUCAGCCGAGAUCGGAAGAGCACACGU
B2: target 1 insC 3' of 22,insU 3' of 6 (mixed)
RNA 1: B1 RNA 1
RNA 2: B1 RNA 2 with G32C, G48U, C49G, U50C, C51U, A52C, G53A
B3: target 3 G3A,G4C (mixed)
RNA 1: CACCCGUGCAAAAUUGCAGGGGUCUAAAACGACCUGAAUAUUUCAGAUCAAA
RNA 2: GGGAAUGGAUCCACAUCUACGAAUUCGUUUUUGAUCUGAAAUAUUCACAUCUGCAGAUCGGAAGAGCACACGU
B4: target 3 C1U,A11G (mixed)
RNA 1: B3 RNA 1
RNA 2: B3 RNA 2 with A41G, C48G, A49G, C51U
B5: target 3 A13G,U22A (mixed)
RNA 1: B3 RNA 1
RNA 2: B3 RNA 2 with U30A, A39G, C48G, A49G
B6: target 3 C1A,A11G (mixed)
RNA 1: B3 RNA 1
RNA 2: B3 RNA 2 with A41G, C48G, A49G, C51A
B7: target 3 insG 3' of 6,insU 3' of 4 (mixed)
RNA 1: B3 RNA 1
RNA 2: GGGAAUGGAUCCACAUCUACGAAUUCGUUUUUGAUCUGAAAUAUUCGAGUGUCUGCAGAUCGGAAGAGCACACGU
B8: target 3 C1U,C6A (mixed)
RNA 1: B3 RNA 1
RNA 2: B3 RNA 2 with C46A, C48G, A49G, C51U
B9: target 3 U10C (mixed)
RNA 1: B3 RNA 1
RNA 2: B3 RNA 2 with U42C, C48G, A49G
B10: target 3 insA 3' of 22,insA 3' of 8 (mixed)
RNA 1: B3 RNA 1
RNA 2: GGGAAUGGAUCCACAUCUACGAAUUCGUUUAUUGAUCUGAAAUAUAUCAGGUCUGCAGAUCGGAAGAGCACACGU
B11: target 3 U2A,U8G (mixed)
RNA 1: B3 RNA 1
RNA 2: B3 RNA 2 with U44G, C48G, A49G, U50A
B12: target 3 insA 3' of 22,insA 3' of 2 (mixed)
RNA 1: B3 RNA 1
RNA 2: B10 RNA 2 with A46U, U47C, C48A, A49G, G51U, U52A
B13: target 3 del2 (mixed)
RNA 1: B3 RNA 1
RNA 2: GGGAAUGGAUCCACAUCUACGAAUUCGUUUUUGAUCUGAAAUAUUCAGGCUGCAGAUCGGAAGAGCACACGU
B14: target 3 C1U,A5U (mixed)
RNA 1: B3 RNA 1
RNA 2: B3 RNA 2 with A47U, C48G, A49G, C51U
B15: target 3 insA 3' of 20,insU 3' of 19 (mixed)
RNA 1: B3 RNA 1
RNA 2: GGGAAUGGAUCCACAUCUACGAAUUCGUUUUUAGUAUCUGAAAUAUUCAGGUCUGCAGAUCGGAAGAGCACACGU
B16: target 3 insG 3' of 9,insC 3' of 3 (mixed)
RNA 1: B3 RNA 1
RNA 2: B7 RNA 2 with U44G, C46U, G47C, U50G, G51C
B17: target 3 insC 3' of 22,insG 3' of 5 (mixed)
RNA 1: B3 RNA 1
RNA 2: B10 RNA 2 with A31C, A46U, U47C, C48A, A49G
B18: target 3 del2,del8 (mixed)
RNA 1: B3 RNA 1
RNA 2: GGGAAUGGAUCCACAUCUACGAAUUCGUUUUUGAUCUGAAAUAUCAGGCUGCAGAUCGGAAGAGCACACGU
B19: target 3 U21G,U22A (mixed)
RNA 1: B3 RNA 1
RNA 2: B3 RNA 2 with U30A, U31G, C48G, A49G
B20: target 3 insC 3' of 5 (mixed)
RNA 1: B3 RNA 1
RNA 2: GGGAAUGGAUCCACAUCUACGAAUUCGUUUUUGAUCUGAAAUAUUCACGGUCUGCAGAUCGGAAGAGCACACGU
B21: target 3 complement block 5-7 (mixed)
RNA 1: B3 RNA 1
RNA 2: B3 RNA 2 with U45A, C46G, A47U, C48G, A49G
B22: target 3 insC 3' of 18,insC 3' of 11 (mixed)
RNA 1: B3 RNA 1
RNA 2: B10 RNA 2 with A31U, U33G, G34A, A35C, U43C, A44U, U45A, A46U
B23: target 3 insU 3' of 4,insU 3' of 4 (mixed)
RNA 1: B3 RNA 1
RNA 2: B7 RNA 2 with G47A, A48G, G49U
B24: target 3 insG 3' of 22,insU 3' of 3 (mixed)
RNA 1: B3 RNA 1
RNA 2: B10 RNA 2 with A31G, A46U, U47C, C48A, A49G, G51U
B25: target 3 insG 3' of 7,insA 3' of 2 (mixed)
RNA 1: B3 RNA 1
RNA 2: B7 RNA 2 with C46G, G47C, U50G, G51U, U52A
B26: target 3 U2G,A13U (mixed)
RNA 1: B3 RNA 1
RNA 2: B3 RNA 2 with A39U, C48G, A49G, U50G
B27: target 3 insA 3' of 6,insA 3' of 3 (mixed)
RNA 1: B3 RNA 1
RNA 2: B7 RNA 2 with G47A, U50G, G51A
B28: target 3 C1A,A5U (mixed)
RNA 1: B3 RNA 1
RNA 2: B3 RNA 2 with A47U, C48G, A49G, C51A
B29: target 3 A5U (mixed)
RNA 1: B3 RNA 1
RNA 2: B3 RNA 2 with A47U, C48G, A49G
B30: target 3 A12G (mixed)
RNA 1: B3 RNA 1
RNA 2: B3 RNA 2 with A40G, C48G, A49G
B31: target 3 insU 3' of 6,insG 3' of 6 (mixed)
RNA 1: B3 RNA 1
RNA 2: B7 RNA 2 with G47U, A48G, G49A, U50G
B32: target 3 G3C,G4A (mixed)
RNA 1: B3 RNA 1
RNA 2: B3 RNA 2 with C48A, A49C

Biological target: T1, EsCas13d, nuclease-dead
Experiment: crRNA (strand 1, pre-loaded); Mg2+; 40 mM Tris-HCl pH 7.5, 150 mM NaCl, 6 mM MgCl2, 1 mM DTT, 0.1% Tween-20, 0.2 mg/ml BSA; 25 C; 10 min per concentration, then washed
Settings: tags: His6-TwinStrep-SUMO cleaved; N-terminal SNAP kept (SNAP-Surface 488); label: 3' end held by stalled T7 RNA polymerase

Question: Which Kd does the source give for B1 here?
Answer: 66 ± 10 nM

Question: With B2 as the binder, how does the Kd read?
Answer: 20 ± 2 nM

Question: Which Kd does the source give for B3 here?
Answer: 9.25 ± 0.85 nM

Question: B4 was tested. Which Kd did it give?
Answer: 55.5 ± 13 nM

Question: B5 was tested. Which Kd did it give?
Answer: 43 ± 15 nM

Question: How did the Kd turn out when B6 was run?
Answer: 41 ± 14.5 nM

Question: With B7 as the binder, how does the Kd read?
Answer: 11.3 ± 1.2 nM

Question: How did the Kd turn out when B8 was run?
Answer: 59 ± 21 nM

Question: How did the Kd turn out when B9 was run?
Answer: 88 ± 22 nM

Question: How did the Kd turn out when B10 was run?
Answer: 98.5 ± 35.5 nM

Question: B11 was tested. Which Kd did it give?
Answer: 29.8 ± 3.4 nM

Question: For B12, which Kd is on record?
Answer: 24.9 ± 2.35 nM

Question: B13 was tested. Which Kd did it give?
Answer: 9.1 ± 0.7 nM

Question: Which Kd does the source give for B14 here?
Answer: 12.9 ± 3.05 nM

Question: With B15 as the binder, how does the Kd read?
Answer: 62.5 ± 14.5 nM

Question: For B16, which Kd is on record?
Answer: 42 ± 7 nM

Question: B17 was tested. Which Kd did it give?
Answer: 93.5 ± 26 nM

Question: For B18, which Kd is on record?
Answer: 47 ± 8.5 nM

Question: Which Kd does the source give for B19 here?
Answer: 57.5 ± 15.5 nM

Question: How did the Kd turn out when B20 was run?
Answer: 19.2 ± 1.75 nM

Question: Which Kd does the source give for B21 here?
Answer: 39.1 ± 2.9 nM

Question: Which Kd does the source give for B22 here?
Answer: 37 ± 5 nM

Question: With B23 as the binder, how does the Kd read?
Answer: 14.5 ± 1.2 nM

Question: How did the Kd turn out when B24 was run?
Answer: 68 ± 26 nM

Question: For B25, which Kd is on record?
Answer: 32.5 ± 5.75 nM

Question: For B26, which Kd is on record?
Answer: 46.5 ± 13.5 nM

Question: For B27, which Kd is on record?
Answer: 6.15 ± 0.6 nM

Question: How did the Kd turn out when B28 was run?
Answer: 5.9 ± 1 nM

Question: With B29 as the binder, how does the Kd read?
Answer: 65.5 ± 14.5 nM

Question: For B30, which Kd is on record?
Answer: 43 ± 7.5 nM

Question: B31 was tested. Which Kd did it give?
Answer: 8.7 ± 0.95 nM

Question: With B32 as the binder, how does the Kd read?
Answer: 6.6 ± 0.65 nM
